Measurements published in paper PMC2795102 (Journal of biomolecular screening, 2009).

Key:
[1] = target: Wildtype, full-length human Gαi1 (human, UniProt P63096 1-354); assay: SPR
Gαi1(R178M/A326S) = Gαi1(R178M/A326S) (human, UniProt P63096 1-354, R178M | A326S); assay: SPR
Chain of Gαi1(R178M/A326S) (P63096 whole entry R178M/A326S): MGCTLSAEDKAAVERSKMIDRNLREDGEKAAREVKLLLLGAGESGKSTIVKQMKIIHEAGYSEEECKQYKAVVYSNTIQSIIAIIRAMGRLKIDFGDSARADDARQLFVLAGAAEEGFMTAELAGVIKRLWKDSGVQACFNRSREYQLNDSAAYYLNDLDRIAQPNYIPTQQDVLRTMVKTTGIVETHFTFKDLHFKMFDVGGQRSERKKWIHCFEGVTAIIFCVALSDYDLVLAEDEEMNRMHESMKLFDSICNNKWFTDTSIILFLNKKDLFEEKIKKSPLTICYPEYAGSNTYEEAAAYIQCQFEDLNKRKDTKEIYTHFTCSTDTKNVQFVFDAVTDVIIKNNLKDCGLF

Chain of Wildtype, full-length human Gαi1 (P63096 whole entry): as the sequence (P63096 whole entry R178M/A326S) above, with M178R, S326A counted along it

Kd [1]: 124 nM
Kd (Gαi1(R178M/A326S)): 115 nM
B1: RGS16 (natural protein, human, UniProt O15492 1-202, looked up)
chain: MCRTLAAFPTTCLERAKEFKTRLGIFLHKSELGCDTGSTGKFEWGSKHSKENRNFSEDVLGWRESFDLLLSSKNGVAAFHAFLKTEFSEENLEFWLACEEFKKIRSATKLASRAHQIFEEFICSEAPKEVNIDHETHELTRMNLQTATATCFDAAQGKTRTLMEKDSYPRFLKSPAYRDLAAQASAASATLSSCSLDEPSHT
